We go through 2 substances from patent US20060182736.

Common to all, as to assay: cell_activity
Series [1] relates to TAT-F435-KRAB/KOX (QSHR2-RDHT-RSHR) (artificial). Conditions: +/-0.35, VEGF mRNA, 293 cells; protein 2.7 fold; H460 3.8 fold at 12 h (p247).
For series [2], the system named is TAT-F435-p65 (QSHR2-RDHT-RSHR) (artificial). Conditions: +/-0.5, secreted VEGF at 48 h, 293 cells, lysate.
Series [3] relates to TAT-F121-KRAB (QSHT-RSHR-RDHT) (artificial). Conditions: 293 cells.
The subject of series [4] is TAT-F475-KRAB (QSHR2-RDHT-RSNR) (artificial).
Series [5] deals with TAT-F475-p65 (QSHR2-RDHT-RSNR) (artificial). Conditions: +/-0.48, 293 cells.
Sequence of TAT-F475-p65 (QSHR2-RDHT-RSNR) (artificial) (chain, as listed by the source): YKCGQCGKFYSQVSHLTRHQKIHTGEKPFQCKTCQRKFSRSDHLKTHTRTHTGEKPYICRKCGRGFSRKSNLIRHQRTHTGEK

Sequence of TAT-F121-KRAB (QSHT-RSHR-RDHT) (artificial) (chain, as listed by the source): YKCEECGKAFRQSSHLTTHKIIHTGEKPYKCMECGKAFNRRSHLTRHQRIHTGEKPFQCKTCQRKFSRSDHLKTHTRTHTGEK
Sequence of TAT-F435-KRAB/KOX (QSHR2-RDHT-RSHR) (artificial) (chain, as listed by the source): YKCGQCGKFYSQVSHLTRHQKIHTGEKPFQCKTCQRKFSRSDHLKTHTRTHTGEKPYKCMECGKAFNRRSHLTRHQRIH

With endogenous VEGF-A gene, the activity (fold repression) in series [1] amounted to 3.1; in series [3] (+/-0.01, VEGF mRNA, lysate), 1.7; in series [4] (+/-0.4, VEGF mRNA, 293 cells) it was 3.1. The activity (fold activation) in series [2] came out at 2.5.
As to “native human VEGF promoter in pGL3-basic luciferase reporter”, the activity (fold repression) came out at 2.1 in series [3] (+/-0.14, purified protein) and 2 in series [4] (80 ug lysate, HEK293, 1.5 fold at 40 ug, vs TAT-only). The activity (fold activation) in series [5] came to 2.5.
